Target: T1, FcγRIIIA α + γ (WT) on transfected COS-1 cells (human; mouse, UniProt P08637 17-254; P20491 19-86)
T1 construct: whole, on cells; also called FcγRIIIA-γγ; FcγRIIIA α and wild type γ
Assay: flow cytometry, COS-1 cells cotransfected with α and γ

T1 sequence (P08637 17-254, chain 1 of 2): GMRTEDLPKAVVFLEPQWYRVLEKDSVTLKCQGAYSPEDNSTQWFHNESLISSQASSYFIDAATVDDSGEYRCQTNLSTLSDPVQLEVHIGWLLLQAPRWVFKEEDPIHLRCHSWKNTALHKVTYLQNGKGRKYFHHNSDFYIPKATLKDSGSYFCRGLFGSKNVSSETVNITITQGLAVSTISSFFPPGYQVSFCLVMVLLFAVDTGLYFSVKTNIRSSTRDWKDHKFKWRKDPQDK
T1 sequence (P20491 19-86, chain 2 of 2): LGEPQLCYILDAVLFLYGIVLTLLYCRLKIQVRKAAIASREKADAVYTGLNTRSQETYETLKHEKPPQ

B1: anti-FcγRIII mAb, 3G8 (antibody)
chain 1: QVTLKESGPGILQPSQTLSLTCSFSGFSLRTSGMGVGWIRQPSGKGLEWLAHIWWDDDKRYNPALKSRLTISKDTSSNQVFLKIASVDTADTATYYCAQINPAWFAYWGQGTLVTVS
chain 2: DIVLTQSPASLAVSLGQRATISCKASQSVDFDGDSFMNWYQQKPGQPPKLLIYTTSNLESGIPARFSASGSGTDFTLNIHPVEEEDTATYYCQQSNEDPYTFGGGTKLELK
fold increase of mean fluorescence intensity over IgG isotype control or mock-transfected cells: 15 fold
